Measured values as given in PMC2921341, “Interaction of Serum- and Glucocorticoid Regulated Kinase 1 (SGK1) with the WW-Domains of Nedd4-2 Is Required for Epithelial Sodium Channel Regulation” (PLoS ONE, 2010).

Tests used:
[1] = system: ENaC; test: Amiloride-sensitive short circuit current in FRT epithelia with ENaC: Nedd4-2 dose response with SGK, SGKY298A or GFP; assay type: cell-based; details: for effect on Nedd4-2 dose-response relationship for ENaC inhibition (in words): FRT epithelia with α-, β-, γENaC, 0.6 µg SGK construct, Nedd4-2 0–0.2 µg, amiloride 10 µM, n = 18
Method: To test the hypothesis that the interaction of the Nedd4-2 WW-domains with the SGK PY motif is required for SGK to influence Nedd4-2 function, we co-expressed α-, β- and γENaC in FRT epithelia with either wild type SGK or SGKY298A along with increasing amounts of Nedd4-2, and measured the amiloride-sensitive short circuit current.
Figure 4 The SGK PY motif is necessary for SGK to inhibit Nedd4-2. Amiloride-sensitive short-circuit sodium current (relative to 0 µg of Nedd4-2) in FRT cells 48 hr after transfection with α-, β- and γENaC and SGK (closed circles) or SGKY298A (open circles) or GFP (closed squares), in the presence of increasing amounts of Nedd4-2, n = 18. Nedd4-2 is expressed as a fraction of the amount of ENaC cDNA. Expression of SGK and SGKY298A was reported in Figure 1B of Snyder et al..
Fischer rat thyroid (FRT) cells were grown on permeable filter supports (Snapwell™, Corning USA or Millicell PCF, both with […] pore size, 12 mm diameter) in F-12 Coon's media with 5% fetal calf serum (Sigma), 100 U/ml penicillin, and 100 µg/ml streptomycin at 37°C. One day after seeding, cells were cotransfected with α-, β- and γENaC (0.07 µg each), 0.6 µg wildtype or mutant SGK, and 0–0.2 µg Nedd4-2 (Fig. 4 only). Total DNA was held constant (1 µg/millicell) using cloning vector DNA. The plasmids were mixed with Lipofectamine 2000 (Invitrogen) or TFX 50 (Promega, Madison, WI; 7.9 µg/millicell) in serum free F12 Coon's media for 15 minutes and transferred to the apical surface of the monolayer. One-six hours later, the apical media was replaced with F-12 Coon's media containing 5% fetal calf serum and amiloride (10 µM). Short-circuit current was measured […] after transfection in modified Ussing chambers connected to a voltage clamp (South Campus Electronics, Dunedin, New Zealand or Warner Instruments). The apical and basolateral surfaces were bathed in (in mM) 135 NaCl, 1.2 CaCl2, 1.2 MgCl2, 2.4 K2HPO4, 0.6 KH2PO4, 10 HEPES, pH 7.4, at 37°C and bubbled with O2. Amiloride-sensitive short-circuit current (Isc-amiloride) was determined as the difference in current with and without amiloride (10 µM) in the apical bathing solution. Data are presented as relative Isc-amiloride (Isc-amiloride relative) that was obtained by normalizing the Isc-amiloride to that of control cells transfected with αβγENaC in the same experiment. Transepithelial resistance (Rt) was monitored by applying repetitive voltage potential pulses (5 mV for 1 sec at 120 sec intervals) across the epithelium.

[2] = system: Nedd4-2; details: previous work; ref [19]; cited from earlier work
Excerpt: There has been debate in the literature over detection of an interaction between SGK and Nedd4-2 in vitro, and the interaction is currently not understood at the molecular level. SGK contains a PY motif (PPFY), which might mediate interaction with the WW-domains of Nedd4/Nedd4-2. […] Two previous in vitro binding studies have asked whether the WW-domains of Nedd4-2 interact with an SGK peptide containing the PY motif. […] To test the hypothesis that the interaction of the Nedd4-2 WW-domains with the SGK PY motif is required for SGK to influence Nedd4-2 function, we co-expressed α-, β- and γENaC in FRT epithelia with either wild type SGK or SGKY298A along with increasing amounts of Nedd4-2, and measured the amiloride-sensitive short circuit current. Consistent with our previous work, we fo ...

[3] = system: Nedd4-2; details: SGK lacking its PY motif; ref [20]; cited from earlier work
[4] = system: Nedd4-2 WW-domains; test: GST interaction experiments, wildtype versus activated SGK on Nedd4-2 WW-domains; assay type: binding, human; details: GST pulldown with 50 µg WW2, WW3 or WW2–3 fusion, COS7 lysates, densitometry normalized to expression; n = 9 for WW2 and WW3, n = 6 for WW2–3
Method: (§1) SGK is activated by phosphorylation, via a phosphatidylinositide 3-kinase (PI3K)-dependent pathway, and SGK is then able to phosphorylate substrates such as Nedd4-2. Although we were able to detect interaction of Nedd4-2 WW-domains with wildtype SGK (Fig. 1B, C), we hypothesized that an activated form of SGK might have a higher affinity for Nedd4-2. Therefore GST interaction experiments were performed comparing the binding of wildtype SGK and activated SGK (SGKS422D) to isolated Nedd4-2 WW-domains. SGKS422D appeared to run more slowly compared to SGK, consistent with it representing a phosphorylated form of SGK [8]. […] To ask if SGKS422D has an altered effect on Na^+ transport, we measured the amiloride-sensitive short circuit current in Fischer rat thyroid (FRT) epithelia transfected with α-, β-, and γENaC and either wildtype or activated SGK (Fig. 3C). […] Instead, increased binding of SGKS422D to Nedd4-2 may be a factor in the improved ability of SGKS422D to increase amiloride-sensitive current.
(§2) Figure 3 SGKS422D binding to Nedd4-2 and stimulation of ENaC is enhanced compared to wildtype SGK. (A) SGK-FLAG or SGKS422D-FLAG were expressed in COS7 cells. […] After washing the beads, the bound proteins were eluted and analyzed by SDS-PAGE and western blotting with anti-FLAG. […] (B) The resulting bands were quantified by densitometry and normalized to total expression of either SGK or SGKS422D. […]

[5] = system: GST; test: GST interaction experiments, GST alone (control); assay type: binding; details: GST pulldown control, COS7 lysates, Fig. 3A
Method: as §1, §2

[6] = system: ENaC; test: Amiloride-sensitive short circuit current in FRT epithelia transfected with α-, β- and γENaC; assay type: cell-based; details: serum-containing and serum-free media gave similar results, amiloride 10 µM, n = 4
Method: as §1, §2

[7] = system: Nedd4; details: in vitro studies; ref [19]; cited from earlier work
Excerpt: There has been debate in the literature over detection of an interaction between SGK and Nedd4-2 in vitro, and the interaction is currently not understood at the molecular level. SGK contains a PY motif (PPFY), which might mediate interaction with the WW-domains of Nedd4/Nedd4-2. […] Two previous in vitro binding studies have asked whether the WW-domains of Nedd4-2 interact with an SGK peptide containing the PY motif. One study used surface plasmon resonance and ...

Molecule	stimulation of ENaC in the presence of Nedd4-2 (in words) ([1]; FRT epithelia with ENaC and Nedd4-2)	effect on Nedd4-2 dose-response relationship for ENaC inhibition (in words) [1]	binding to full length Nedd4-2 (in words) [2]	phosphorylation of Nedd4-2 (in words) [3]	binding to Nedd4-2 WW-domains compared with wildtype SGK (in words) [4]	binding to GST alone (in words) [5]	effect on amiloride-sensitive short circuit current, Isc-amiloride (in words) [6]	interaction with Nedd4 (in words) [7]
SGKY298A: SGK that contains a mutated PY motif (protein, left off: FLAG, end not stated, state not stated, SGK that contains a mutated PY motif) MTVKTEAAKGTLTYSRMRGMVAILIAFMKQRRMGLNDFIQKIANNSYACKHPEVQSILKISQPQEPELMNANPSPPPSPSQQINLGPSSNPHAKPSDFHFLKVIGKGSFGKVLLARHKAEEVFYAVKVLQKKAILKKKEEKHIMSERNVLLKNVKHPFLVGLHFSFQTADKLYFVLDYINGGELFYHLQRERCFLEPRARFYAAEIASALGYLHSLNIVYRDLKPENILLDSQGHIVLTDFGLCKENIEHNSTTSTFCGTPEYLAPEVLHKQPYDRTVDWWCLGAVLYEMLYGLPPFASRNTAEMYDNILNKPLQLKPNITNSARHLLEGLLQKDRTKRLGAKDDFMEIKSHVFFSLINWDDLINKKITPPFNPNVSGPNDLRHFDPEFTEEPVPNSIGKSPDSVLVTASVKEAAEAFLGFSYAPPTDSFL	failed to stimulate ENaC activity in the presence of Nedd4-2	had no effect on the Nedd4-2 dose-response relationship	not able to bind full length Nedd4-2	less able to phosphorylate Nedd4-2				
SGKS422D: activated SGK; mutation of one of two phosphorylation sites (protein, left off: FLAG, C-terminal, kept, mutation of one of two phosphorylation sites) MTVKTEAAKGTLTYSRMRGMVAILIAFMKQRRMGLNDFIQKIANNSYACKHPEVQSILKISQPQEPELMNANPSPPPSPSQQINLGPSSNPHAKPSDFHFLKVIGKGSFGKVLLARHKAEEVFYAVKVLQKKAILKKKEEKHIMSERNVLLKNVKHPFLVGLHFSFQTADKLYFVLDYINGGELFYHLQRERCFLEPRARFYAAEIASALGYLHSLNIVYRDLKPENILLDSQGHIVLTDFGLCKENIEHNSTTSTFCGTPEYLAPEVLHKQPYDRTVDWWCLGAVLYEMLYGLPPFYSRNTAEMYDNILNKPLQLKPNITNSARHLLEGLLQKDRTKRLGAKDDFMEIKSHVFFSLINWDDLINKKITPPFNPNVSGPNDLRHFDPEFTEEPVPNSIGKSPDSVLVTASVKEAAEAFLGFDYAPPTDSFL					binds Nedd4-2 WW-domains more strongly than SGK	did not bind to GST alone	greater stimulatory effect on Isc-amiloride compared to SGK	
SGK: Serum- and Glucocorticoid regulated Kinase isoform 1 (protein, UniProt O00141 1-431, looked up) Serine/threonine-protein …: MTVKTEAAKGTLTYSRMRGMVAILIAFMKQRRMGLNDFIQKIANNSYACKHPEVQSILKISQPQEPELMNANPSPPPSPSQQINLGPSSNPHAKPSDFHFLKVIGKGSFGKVLLARHKAEEVFYAVKVLQKKAILKKKEEKHIMSERNVLLKNVKHPFLVGLHFSFQTADKLYFVLDYINGGELFYHLQRERCFLEPRARFYAAEIASALGYLHSLNIVYRDLKPENILLDSQGHIVLTDFGLCKENIEHNSTTSTFCGTPEYLAPEVLHKQPYDRTVDWWCLGAVLYEMLYGLPPFYSRNTAEMYDNILNKPLQLKPNITNSARHLLEGLLQKDRTKRLGAKDDFMEIKSHVFFSLINWDDLINKKITPPFNPNVSGPNDLRHFDPEFTEEPVPNSIGKSPDSVLVTASVKEAAEAFLGFSYAPPTDSFL		reduced inhibition, shifting the dose-response relationship to the right	Nedd4 and Nedd4-2 interact with wildtype SGK				stimulated Isc-amiloride significantly	Nedd4 and Nedd4-2 interact with wildtype SGK
